In publication PMC8427195, “Dehydrogenation Mechanism of Three Stereoisomers of Butane-2,3-Diol in Pseudomonas putida KT2440” (Frontiers in Bioengineering and Biotechnology, 2021):

Legend:
[1] = molecular target: (2R,3R)-2,3-BDO dehydrogenase (PP0552) of Pseudomonas putida KT2440 (Pseudomonas putida KT2440); assay: SEC; Superdex 200 10/300 GL gel filtration; eluent 50 mM sodium phosphate pH 7.2, 150 mM sodium chloride, 0.5 mL min^-1; native molecular weight estimated against standard proteins and compared with the monomer mass
purified protein [2] = substrate: C[C@@H](O)[C@@H](C)O; assay: purified protein; details: oxidation with NAD+ (1 mM in general assay), 50 mM Tris-HCl pH 7.4, 30 °C
purified protein [3] = substrate: C[C@H](O)[C@@H](C)O; assay: purified protein; details: oxidation with NAD+ (1 mM in general assay), 50 mM Tris-HCl pH 7.4, 30 °C
purified protein [4] = substrate: CC(=O)C(C)O; assay: purified protein; assay type: biochemical, Pseudomonas putida; details: reduction with NADH (0.2 mM in general assay), pH 7.4, 30 °C, apparent Km
purified protein [5] = substrate: NC(=O)C1=CN([C@@H]2O[C@H](COP(=O)(O)OP(=O)(O)OC[C@H]3O[C@@H](n4cnc5c(N)ncnc54)[C@H](O)[C@@H]3O)[C@@H](O)[C@H]2O)C=CC1; assay: purified protein; assay type: biochemical, Pseudomonas putida; details: reductive direction, pH 7.4, 30 °C, apparent Km, varied: cofactor
purified protein [6] = substrate: NC(=O)c1ccc[n+]([C@@H]2O[C@H](COP(=O)(O)OP(=O)(O)OC[C@H]3O[C@@H](n4cnc5c(N)ncnc54)[C@H](O)[C@@H]3O)[C@@H](O)[C@H]2O)c1; assay: purified protein; assay type: biochemical, Pseudomonas putida; details: oxidative direction, diol co-substrate not stated (10 mM in general assay), pH 7.4, 30 °C, varied: cofactor

| stoichiometry N [1] | Molecule | Km (purified protein [2]) [µM] | kcat (purified protein [2]) [s⁻¹] | kcat/Km (purified protein [2]) [M⁻¹ s⁻¹] | Km (purified protein [3]) [µM] | kcat (purified protein [3]) [s⁻¹] | kcat/Km (purified protein [3]) [M⁻¹ s⁻¹] | Km (purified protein [4]) [µM] | kcat (purified protein [4]) [s⁻¹] | kcat/Km (purified protein [4]) [M⁻¹ s⁻¹] | Km (purified protein [5]) [µM] | kcat (purified protein [5]) [s⁻¹] | kcat/Km (purified protein [5]) [M⁻¹ s⁻¹] | Km (purified protein [6]) [µM] | kcat (purified protein [6]) [s⁻¹] | kcat/Km (purified protein [6]) [M⁻¹ s⁻¹] |
| --- | --- | --- | --- | --- | --- | --- | --- | --- | --- | --- | --- | --- | --- | --- | --- | --- |
| 4 | (2R,3R)-2,3-BDO dehydrogenase (PP0552) of Pseudomonas putida KT2440 (enzyme) |  |  |  |  |  |  |  |  |  |  |  |  |  |  |  |
|  | R,R-BDH (PP0552), (2R,3R)-2,3-BDO dehydrogenase (Pseudomonas putida KT2440) (protein) MNDLSHTHMRAAVWHGRHDIRVEQVPLPADPAPGWVQIKVDWCGICGSDLHEYVAGPVFIPVEAPHPLTGIQGQCILGHEFCGHIAKLGEGVEGYAVGDPVAADACQHCGTCYYCTHGLYNICERLAFTGLMNNGAFAELVNVPANLLYRLPQGFPAEAGALIEPLAVGMHAVKKAGSLLGQTVVVVGAGTIGLCTIMCAKAAGAAQVIALEMSSARKAKAKEAGANVVLDPSQCDALAEIRALTAGLGADVSFECIGNKHTAKLAIDTIRKAGKCVLVGIFEEPSEFNFFELVSTEKQVLGALAYNGEFADVIAFIADGRLDIRPLVTGRIGLEQIVELGFEELVNNKEENVKIIVSPGVR | 155 ± 16 | 23.9 | 154000 | 251 ± 22 | 21.1 | 84300 | 101 ± 5 | 34.34 ± 0.256 | 341000 ± 16900 | 119 ± 22 | 53.3 ± 5.16 | 454000 ± 36600 | 825 ± 96 | 52.8 ± 3.8 | 64300 ± 3120 |
